Experiment [1] concerns the target T1, human 4-1BB residues 24–186, wild type, His–Avi (human, UniProt Q07011). The experiment can be described thus: cell-based or functional assay.
Experiment [2] concerns the target T2, human 4-1BB residues 24–186 I132R, His–Avi (Homo sapiens, UniProt Q07011, I132R).
T2 construct: human 4-1BB (CD137, TNFRSF9), residues 24-186, I132R; source: HEK cells, transfected, secreted, purified (NiExcel, Superdex 200); not shown: His8, C-terminal, kept
Nature of the experiment: SPR; binding kinetics and affinities, monovalent binding of utomilumab and urelumab to wild type and mutant h4-1BB (Supplementary Figure 8); who was immobilised is not given in the source. The conditions noted are these: both partners purified. In general terms: Surface plasmon resonance follows binding to a sensor surface in real time, without labels.

Experiment [3] has as its target T3, human 4-1BB residues 24–186 M101R, His–Avi (Homo sapiens, UniProt Q07011, M101R).
T3 construct: human 4-1BB (CD137, TNFRSF9), residues 24-186, M101R; source: HEK cells, transfected, secreted, purified (NiExcel, Superdex 200); not shown: His8, C-terminal, kept
The experiment is described as above. The conditions noted are these: both partners purified.

The target of experiment [4] is T1, human 4-1BB residues 24–186, wild type, …. Described as above. The conditions noted are these: both partners purified.

T1 sequence (Q07011 24-186): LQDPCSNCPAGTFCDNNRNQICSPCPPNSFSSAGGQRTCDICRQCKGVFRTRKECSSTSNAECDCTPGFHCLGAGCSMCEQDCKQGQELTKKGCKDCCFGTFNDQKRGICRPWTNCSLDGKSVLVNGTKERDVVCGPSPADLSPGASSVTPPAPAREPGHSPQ
T3 sequence (Q07011 24-186 M101R): as the sequence (Q07011 24-186) above, with M78R counted along it
T2 sequence (Q07011 24-186 I132R): as the sequence (Q07011 24-186) above, with I109R counted along it

B1: urelumab (fully human IgG4 mAb) (antibody, V domains shown)
VH: QVQLQQWGAGLLKPSETLSLTCAVYGGSFSGYYWSWIRQSPEKGLEWIGEINHGGYVTYNPSLESRVTISVDTSKNQFSLKLSSVTAADTAVYYCARDYGPGNYDWYFDLWGRGTLVTVSS
VL: EIVLTQSPATLSLSPGERATLSCRASQSVSSYLAWYQQKPGQAPRLLIYDASNRATGIPARFSGSGSGTDFTLTISSLEPEDFAVYYCQQRSNWPPALTFGGGTKVEIK
On to B1, for which, in experiment [1], the “NF-ĸB luciferase reporter in h4-1BB-expressing HEK293 cells, fold induction over unstimulated cells, cross-linked by Pfeiffer cells (FcγRIIB), max 250 nM” value stood at 2.24 fold and the “NF-ĸB luciferase reporter in h4-1BB-expressing HEK293 cells, fold induction over unstimulated cells, no cross-linking, max 250 nM” value amounted to 1.99 fold.

B2: urelumab Fab (Fab, V domains shown)
VH: QVQLQQWGAGLLKPSETLSLTCAVYGGSFSGYYWSWIRQSPEKGLEWIGEINHGGYVTYNPSLESRVTISVDTSKNQFSLKLSSVTAADTAVYYCARDYGPGNYDWYFDLWGRGTLVTVSS
VL: EIVLTQSPATLSLSPGERATLSCRASQSVSSYLAWYQQKPGQAPRLLIYDASNRATGIPARFSGSGSGTDFTLTISSLEPEDFAVYYCQQRSNWPPALTFGGGTKVEIK
notes: urelumab heavy chain Fab region; urelumab kappa light chain (captured on an anti-human kappa surface); also called BMS-663513 (Fab); URE-Fab
Take B2: the Kd (commonly the equilibrium constant for the complex coming apart) came to 18 nM in experiment [2], 16 nM in experiment [3] and 22 nM in experiment [4].

The values are drawn from PMC6224509 (Nature Communications, 2018).
